Source: patent US20210252159A1, “CONJUGATES OF CARTILAGE-HOMING PEPTIDES” (priority 2018, published 2021)
Positions of bridges follow the written chain, without caps; N, C: chain ends. Residues, ends and D or L forms follow the SMILES beside them. *: point of attachment. X3 = C[C@@H]1C[C@H]2[C@@H]3CCC4=CC(=O)C=C[C@]4(C)[C@@]3(F)[C@@H](O)C[C@]2(C)[C@@]1(O)C(=O)COC(=O)CCCC(=O)*

Legend:
[1] = Hydrolysis assay of peptide-drug conjugates in human plasma (free Dex by LC/MS); format: in vitro ADME; conditions: 37° C., release of free Dex, time points to 32 hr, read-out: Half-life (hours) as measured in the hydrolysis experiments (converted)
Protocol: In order to determine hydrolysis rates, conjugates can be diluted in PBS, rat plasma, or human plasma and incubated at 37 degrees. Samples can be taken at designated time-points (e.g., 1, 2, 3, 5, 10, 15, 20, 25, 30, 45, 60, or 90 minutes and/or hours after administration). Internal standards such as triamcinolone acetonide (TAA) can be added as an internal standard, and then active agent/TAA can be extracted using acetonitrile, for example. The samples can be dried down, reconstituted, and analyzed by LC/MS. Data can be normalized using Dex AUC/TAA AUC. Percent hydrolysis can be calculated using the average ratio for active agent AUC/TAA AUC at a time point of maximal drug release. A general method can include using a lyophilized, purified peptide-drug conjugates reconstituted in DMSO following production to generate stock solution at 20 mg/mL. Each conjugate stock can be brought to 0.25 mg/mL in each hydrolysis condition (1×DPBS, human plasma and rat plasma) in triplicate and rocked at 37° C. To quantitate free active agent, 100 μl of the hydrolyzed conjugate solution can be transferred into 1 mL acetonitrile at 4° C. at which time all plasma proteins and intact conjugates can precipitate. This can be performed repeatedly to generate a series of time points (0 hr, 0.5 hr, 1 hr, 2 hr, 4 hr, 6 hr, 8 hr, 24 hr, 32 hr). The acetonitrile solution can be spun at 17,000 g for 5 minutes, and the supernatant removed and added to a 96 well block. The pellet can then be resuspended in 500 μl acetonitrile and re-pelleted as before. The supernatant can be removed and added to the same well in the block. Samples can be prepared for analysis by drying under a nitrogen stream followed by reconstitution in 110 μl 45:55 ACN:Citrate 10 mM pH 5.5. […] Quantification of free active agent (or drug) can be achieved through integration of active agent peaks of the TIC. […]
To quantitate free dexamethasone (Dex), 100 μl of the hydrolyzed conjugate solution was transferred into 1 mL acetonitrile at 4° C. at which time all plasma proteins and intact conjugates precipitated. […]

[2] = Hydrolysis assay of peptide-drug conjugates in rat plasma (free drug by LC/MS); format: in vitro ADME; conditions: 37° C.
Protocol: Peptide-drug conjugate peptide(SEQ ID NO: 105)-DMA-dCIC was incubated in rat plasma at 37° C. Samples were removed at regular intervals, processed by solvent extraction, and analyzed by LC/MS to quantitate free dCIC. 11 time-points were measured between 5 min and 56 hours with 3 replicates per time point. The assay was repeated two times.
(§1) In order to determine hydrolysis rates, conjugates can be diluted in PBS, rat plasma, or human plasma and incubated at 37 degrees. Samples can be taken at designated time-points (e.g., 1, 2, 3, 5, 10, 15, 20, 25, 30, 45, 60, or 90 minutes and/or hours after administration). Internal standards such as triamcinolone acetonide (TAA) can be added as an internal standard, and then active agent/TAA can be extracted using acetonitrile, for example. The samples can be dried down, reconstituted, and analyzed by LC/MS. Data can be normalized using Dex AUC/TAA AUC. Percent hydrolysis can be calculated using the average ratio for active agent AUC/TAA AUC at a time point of maximal drug release. A general method can include using a lyophilized, purified peptide-drug conjugates reconstituted in DMSO following production to generate stock solution at 20 mg/mL. Each conjugate stock can be brought to 0.25 mg/mL in each hydrolysis condition (1×DPBS, human plasma and rat plasma) in triplicate and rocked at 37° C. To quantitate free active agent, 100 μl of the hydrolyzed conjugate solution can be transferred into 1 mL acetonitrile at 4° C. at which time all plasma proteins and intact conjugates can precipitate. This can be performed repeatedly to generate a series of time points (0 hr, 0.5 hr, 1 hr, 2 hr, 4 hr, 6 hr, 8 hr, 24 hr, 32 hr). The acetonitrile solution can be spun at 17,000 g for 5 minutes, and the supernatant removed and added to a 96 well block. The pellet can then be resuspended in 500 μl acetonitrile and re-pelleted as before. The supernatant can be removed and added to the same well in the block. Samples can be prepared for analysis by drying under a nitrogen stream followed by reconstitution in 110 μl 45:55 ACN:Citrate 10 mM pH 5.5. To ensure optimal recovery the block can be shaken via plate shaker at 7,000 rpm for 5 minutes during the reconstitution step. Prior to LC/MS the samples can be transferred to a 96 well plate and centrifuged at 6,500 g for 15 minutes. Analysis can be performed on an Agilent 1260 Infinity series HPLC with inline 6120 single quad MS using acetonitrile, water (+0.1% TFA) gradient (shown below) on an InfinityLab Poroshell SB-C18 column. Quantification of free active agent (or drug) can be achieved through integration of active agent peaks of the TIC.
(§2) Lyophilized, purified peptide-drug conjugates were reconstituted in DMSO following production to generate stock solution at 20 mg/mL. Each conjugate stock was brought to 0.25 mg/mL in each hydrolysis condition (1×DPBS, human plasma and rat plasma) in triplicate and rocked at 37° C.
(§3) To quantitate free dexamethasone (Dex), 100 μl of the hydrolyzed conjugate solution was transferred into 1 mL acetonitrile at 4° C. at which time all plasma proteins and intact conjugates precipitated. This was performed repeatedly to generate a series of time points (0 hr, 0.5 hr, 1 hr, 2 hr, 4 hr, 6 hr, 8 hr, 24 hr, 32 hr). The corticosteroid triamcinolone acetonide (25 μl, 0.1 mg/mL in 45:55 ACN:Citrate 10 mM pH 5.5) was supplemented into the acetonitrile solution as an internal standard. The acetonitrile solution was spun at 17,000 g for 5 minutes, and the supernatant removed and added to a 96 well block. The pellet was resuspended in 500 μl acetonitrile and re-pelleted as before. The supernatant was removed and added to the same well in the block.
Samples were prepared for analysis by drying under a nitrogen stream followed by reconstitution in 110 μl 45:55 ACN:Citrate 10 mM pH 5.5. To ensure optimal recovery the block was shaken via plate shaker at 7,000 rpm for 5 minutes during the reconstitution step. […]

[3] = Hydrolysis assay of peptide-drug conjugates in PBS (free Dex by LC/MS); format: physicochemical; conditions: 37° C.
Protocol: as §1, §2, §3
Samples were prepared for analysis by drying under a nitrogen stream followed by reconstitution in 110 μl 45:55 ACN:Citrate 10 mM pH 5.5. To ensure optimal recovery the block was shaken via plate shaker at 7,000 rpm for 5 minutes during the reconstitution step. Prior to LC/MS the samples were transferred to a 96 well plate and centrifuged at 6,500 g for 15 minutes. Analysis was performed on an Agilent 1260 Infinity series HPLC with inline 6120 single quad MS using a gradient of 0.1% TFA in acetonitrile (solvent B), and 0.1% TFA (aq) (solvent A) gradient (shown below) on an InfinityLab Poroshell SB-C18 column. […]

[4] = test system: CIA rats
Protocol: Arthritis was induced in 9-week-old female Lewis rats (Envigo or Charles River Laboratories) by intradermal injection while anesthetized of 400 ug bovine type II collagen (Chondrex Inc, Redmond Wash.) in 2 adjacent 200 ul (1 mg/ml) doses on day 0. Collagen is prepared for injection by dissolving at 2 mg/ml in 0.01N glacial acetic acid in sterile water and rocking at 4° C. overnight then emulsifying in Freund's incomplete adjuvant (IFA, Sigma Aldrich). To emulsify, equal volumes of collagen solution and IFA are drawn up into separate syringes, which are joined by a 3-way stopcock. While on ice, the collagen and IFA are mixed by pressing between the two syringes rapidly for 10 minutes. Quality of the emulsification is tested after 10 minutes of mixing by dropping a small amount of mixture in water. A properly emulsified solution will remain as a discrete droplet and not disperse in the water. On day 7, rats are challenged with a second intradermal injection of 100 ug of collagen in 100 ul, 1 mg/ml, collagen in IFA solution prepared fresh. Body weight and ankle diameter measurements are recorded daily from day 7 through the end of the study. Ankle diameter was measure by a single researcher using a Fowler Digitrix 2 micrometer. Three measurements of each ankle were taken of the lateral dimension at the tarsus of lightly anesthetized rats. The reported ankle diameter measurement is the mean of the three measurements.
Arthritis was induced as described in four cohorts of 9-week-old female Lewis rats. Rats were randomly placed in treatment groups, balancing compound and dose groups across cohorts. […] Rats were dosed by tail vein injection on days 11 and 12 and euthanized on day 13 by CO2 asphyxiation. Immediately after cessation of respiratory movement, blood was collected by cardiac puncture, synovial fluid was collected from both knees, one hind limb was fixed in formalin and the alternate ankle was frozen on dry ice. Thymus, spleen, liver, and kidney weights were recorded.
CIA Response study design.
The aim of the study was to test the 4 conjugates with various linkers at two different doses in vivo in CIA rats to assess the following: ability to deliver sufficient dexamethasone to the joint to show functionality and potential therapeutic effect in the disease model.
CIA was induced in female Lewis rats (as described above, see EXAMPLE 21). Body weight and ankle joint diameters were measured on day 0 and then daily from day 7 until euthanasia. […] At euthanasia, synovial fluid was collected from both knees, one hind limb was fixed in formalin and the alternate ankle was frozen on dry ice. Thymus, spleen, liver, and kidney weights were recorded. Blood samples were submitted for CBC/Chemistry analysis, and the remaining plasma was frozen.

CC[C@H](C)[C@@H]1NC(=O)[C@@H]2CSSC[C@H](NC(=O)[C@H](CCCNC(=N)N)NC(=O)[C@@H](NC(=O)[C@H](CC(N)=O)NC(=O)[C@@H](NC(=O)[C@@H]3CCCN3C(=O)[C@@H](NC(=O)CNC(=O)[C@H](CO)NC(=O)CNC(=O)CCCC(=O)OCC(=O)[C@@]3(O)[C@H](C)C[C@H]4[C@@H]5CCC6=CC(=O)C=C[C@]6(C)[C@@]5(F)[C@@H](O)C[C@@]43C)C(C)C)[C@@H](C)CC)C(C)C)C(=O)N[C@@H](CCCNC(=N)N)C(=O)NCC(=O)N[C@@H](CO)C(=O)N[C@@H](CCCNC(=N)N)C(=O)N[C@@H](CC(=O)O)C(=O)N[C@H]3CSSC[C@H](NC(=O)[C@H](CCCNC(=N)N)NC(=O)[C@H](CO)NC(=O)[C@H](CC(N)=O)NC1=O)C(=O)N[C@@H](Cc1c[nH]cn1)C(=O)N[C@H](C(=O)N[C@H](C(=O)N1CCC[C@H]1C(=O)O)[C@@H](C)O)CSSC[C@H](NC(=O)[C@@H]1CCCN1C(=O)[C@H](CC(=O)O)NC(=O)[C@H](CC(C)C)NC3=O)C(=O)N[C@@H](CCCNC(=N)N)C(=O)N[C@@H](CCCNC(=N)N)C(=O)N[C@@H](C)C(=O)NCC(=O)N[C@@H](CCSC)C(=O)N[C@@H](CCCNC(=N)N)C(=O)N[C@@H](Cc1ccccc1)C(=O)NCC(=O)N[C@@H](CCCNC(=N)N)C(=O)N2 [Compound 23, Peptide(SEQ ID NO: 105)-glutaric acid-Dex] (X3-GSGVPINVRCRGSRDCLDPCRRAGMRFGRCINSRCHCTP-OH; disulfide 10-30, 16-35, 20-37 (inferred); C-terminus assumed)
half-life at 0.25 mg/mL [1]: 1.7 h
half-life at 0.25 mg/mL ([2]; Rat Plasma, release of free Dex, time points to 32 hr, read-out: Half-life (hours) as measured in the hydrolysis experiments (converted)): 1.9 h
half-life at 0.25 mg/mL ([2]; in rat plasma, free Dex, read-out: Hydrolysis half-life (converted)): 1.9 h
half-life at 0.25 mg/mL ([3]; PBS, release of free Dex, time points to 32 hr, read-out: Half-life (hours) as measured in the hydrolysis experiments (converted)): 6 h
Hydrolysis half-life ([3]; in PBS, free Dex): 6 h
ankle swelling over time as compared to vehicle ([4]; 0.2 mg/kg and 0.5 mg/kg Dex equivalents IV days 11 and 12): reduction in ankle swelling
spleen weight ([4]; 0.2 mg/kg and 0.5 mg/kg dose): reduction
thymus weight ([4]; 0.2 mg/kg and 0.5 mg/kg dose): reduction
total body weight ([4]; 0.2 mg/kg and 0.5 mg/kg dose): reduction
change in median ankle diameter between day 11 and day 13 as compared to vehicle ([4]; 0.2 mg/kg dose): statistically significant reduction in ankle diameter
difference from Dex in change in ankle diameter ([4]; 0.2 mg/kg dose): no statistically significant difference
reduction in thymus weight as compared to vehicle ([4]; 0.2 mg/kg dose groups): statistically significant
mortality and tolerability ([4]; 1 mg/kg Dex equivalents IV, some rats): died overnight
